For the assay, the target named is ClpXP (ClpX ΔN-ter hexamer with ClpP tetradecamer) (UniProt P0A6H1).

These results are taken from paper PMC5935755.

As for “GFP-BAP1 (UCH domain, residues 1-238, ssrA-tagged) (from UniProt Q92560 1-238)”, the KM of ClpXP-mediated proteolysis (Michaelis-Menten analysis, loss of GFP fluorescence; 0.3 µM ClpX6, 0.9 µM ClpP14, 30 °C) was 0.64 µM.

Turning to GFP-UCHL1 (ssrA-tagged), the KM of ClpXP-mediated proteolysis (Michaelis-Menten analysis, loss of GFP fluorescence; 0.3 µM ClpX6, 0.9 µM ClpP14, 30 °C) turned out to be 3.67 µM.

As for GFP-UCHL1_(I93M) (ssrA-tagged), the KM of ClpXP-mediated proteolysis (Michaelis-Menten analysis, loss of GFP fluorescence; 0.3 µM ClpX6, 0.9 µM ClpP14, 30 °C) turned out to be 4.47 µM.

As for GFP-UCHL3 (ssrA-tagged), the KM of ClpXP-mediated proteolysis (Michaelis-Menten analysis, loss of GFP fluorescence; 0.3 µM ClpX6, 0.9 µM ClpP14, 30 °C) is 2.59 µM.

Consider “GFP-UCHL5 (UCH domain, residues 1-240, ssrA-tagged) (from UniProt Q9Y5K5 1-240)”, for which the KM of ClpXP-mediated proteolysis (Michaelis-Menten analysis, loss of GFP fluorescence; 0.3 µM ClpX6, 0.9 µM ClpP14, 30 °C) was determined as 1.85 µM.
